Results: the Human Domainome abundance scans (Beltran et al. 2025)
± gives the uncertainty stated by the source.

B1: Transitional endoplasmic reticulum ATPase, residues 26 to 106; numbered along this chain, P55072 (parent)
chain: LIVDEAINEDNSVVSLSQPKMDELQLFRGDTVLLKGKKRREAVCIVLSDDTCSDEKIRMNRVVRNNLRVRLGDVISIQPCP

Variants of: B1
Test: abundance fitness (aPCA) (normalised: wild type 0, dead -1); higher = more abundant; growth selection in yeast, the domain comes from the species named
Conditions: Homo sapiens

| Variant | abundance fitness |
| --- | --- |
| G36W | -0.618 ± 0.15 |
| G36R | -0.37 ± 0.056 |
| G36M | -0.309 ± 0.13 |
| G36D | -0.262 ± 0.093 |
| G36V | -0.218 ± 0.059 |
| L24F | -0.321 ± 0.11 |
| L24W | -0.265 ± 0.075 |
| L24S | -0.74 ± 0.095 |
| L24M | -0.249 ± 0.076 |
| L24E | -0.709 ± 0.079 |
| L24C | -0.574 ± 0.12 |
| L24D | -0.759 ± 0.079 |
| L24G | -0.775 ± 0.069 |
| L24K | -0.98 ± 0.2 |
| L24N | -0.47 ± 0.19 |
| L24A | -0.553 ± 0.054 |
| L24H | -0.366 ± 0.21 |
| L24Y | -0.224 ± 0.093 |
| L24R | -0.509 ± 0.045 |
| L24Q | -0.516 ± 0.14 |
| L24V | -0.429 ± 0.041 |
| L24P | -0.551 ± 0.099 |
| L24I | -0.338 ± 0.099 |
| L24T | -0.705 ± 0.088 |

| Variant | abundance fitness |
| --- | --- |
| M21E | -0.731 ± 0.31 |
| M21Q | -0.752 ± 0.18 |
| M21A | -0.638 ± 0.071 |
| M21C | -0.435 ± 0.12 |
| M21P | -0.902 ± 0.25 |
| M21V | -0.759 ± 0.12 |
| M21Y | -0.516 ± 0.16 |
| M21R | -0.888 ± 0.055 |
| M21G | -0.894 ± 0.081 |
| M21L | 0.048 ± 0.074 |
| M21S | -1.03 ± 0.16 |
| M21H | -1.21 ± 0.41 |
| M21T | -0.825 ± 0.18 |
| M21K | -0.881 ± 0.17 |
| M21I | -0.124 ± 0.11 |
| L34S | -0.757 ± 0.12 |
| L34F | -0.856 ± 0.39 |
| L34G | -0.46 ± 0.12 |
| L34I | 0.074 ± 0.21 |
| L34A | -0.292 ± 0.1 |
| L34Q | -0.461 ± 0.32 |
| L34E | -1.01 ± 0.25 |
| L34C | 0.26 ± 0.41 |
| L34N | -0.891 ± 0.28 |

| Variant | abundance fitness |
| --- | --- |
| L34K | -0.806 ± 0.2 |
| L34W | -0.777 ± 0.23 |
| L34V | -0.047 ± 0.07 |
| L34P | -1.04 ± 0.43 |
| L34R | -0.963 ± 0.17 |
| L34T | -0.558 ± 0.07 |
| L34M | -0.073 ± 0.11 |
| L33S | -0.122 ± 0.056 |
| L33H | -0.031 ± 0.11 |
| L33V | 0.042 ± 0.061 |
| L33D | -0.572 ± 0.064 |
| L33T | -0.03 ± 0.088 |
| L33E | -0.19 ± 0.081 |
| L33Y | 0.086 ± 0.12 |
| L33C | 0.055 ± 0.094 |
| L33M | 0.019 ± 0.083 |
| L33K | -0.045 ± 0.1 |
| L33G | -0.344 ± 0.038 |
| L33I | -0.23 ± 0.14 |
| L33R | -0.068 ± 0.046 |
| L33Q | -0.109 ± 0.087 |
| L33F | -0.318 ± 0.17 |
| L33W | -0.155 ± 0.065 |
| L33P | -0.955 ± 0.13 |

| Variant | abundance fitness |
| --- | --- |
| T31C | -0.262 ± 0.11 |
| T31E | 0.041 ± 0.064 |
| T31K | 0.077 ± 0.071 |
| T31H | -0.048 ± 0.13 |
| T31P | -0.204 ± 0.076 |
| T31W | -0.134 ± 0.087 |
| T31L | -0.129 ± 0.061 |
| T31M | -0.004 ± 0.13 |
| T31G | -0.063 ± 0.042 |
| T31N | -0.023 ± 0.11 |
| T31Y | -0.161 ± 0.14 |
| T31A | -0.089 ± 0.038 |
| T31R | 0.053 ± 0.047 |
| T31F | -0.198 ± 0.09 |
| T31I | -0.235 ± 0.13 |
| T31V | -0.104 ± 0.049 |
| T31S | -0.028 ± 0.051 |
| T31D | -0.27 ± 0.1 |
| L26S | -0.838 ± 0.11 |
| L26I | -0.078 ± 0.13 |
| L26E | -1.02 ± 0.24 |
| L26H | -0.609 ± 0.3 |
| L26W | -0.447 ± 0.054 |
| L26C | -0.346 ± 0.1 |

| Variant | abundance fitness |
| --- | --- |
| L26Q | -0.763 ± 0.13 |
| L26R | -0.939 ± 0.088 |
| L26P | -0.859 ± 0.18 |
| L26V | -0.027 ± 0.057 |
| L26A | -0.36 ± 0.063 |
| L26T | -0.462 ± 0.12 |
| L26F | -0.285 ± 0.23 |
| L26M | -0.047 ± 0.092 |
| L26D | -0.768 ± 0.26 |
| K20W | -0.391 ± 0.14 |
| K20V | 0.004 ± 0.046 |
| K20T | -0.08 ± 0.071 |
| V32E | -1.05 ± 0.33 |
| V32Q | -0.785 ± 0.18 |
| V32M | -0.166 ± 0.1 |
| V32R | -0.98 ± 0.11 |
| V32W | -0.988 ± 0.22 |
| V32S | -0.854 ± 0.11 |
| V32G | -0.587 ± 0.049 |
| V32A | -0.18 ± 0.057 |
| V32P | -1.09 ± 0.28 |
| V32F | -0.832 ± 0.28 |
| V32C | 0.007 ± 0.094 |
| V32I | -0.016 ± 0.07 |

| Variant | abundance fitness |
| --- | --- |
| V32T | -0.827 ± 0.19 |
| E23T | -0.041 ± 0.083 |
| E23D | -0.23 ± 0.12 |
| E23M | 0.085 ± 0.3 |
| E23I | -0.126 ± 0.18 |
| E23C | -0.496 ± 0.26 |
| E23A | -0.103 ± 0.06 |
| E23N | -0.112 ± 0.31 |
| E23R | -0.09 ± 0.064 |
| E23W | -0.338 ± 0.12 |
| E23H | -0.2 ± 0.21 |
| E23L | -0.148 ± 0.089 |
| E23G | -0.079 ± 0.061 |
| E23Q | -0.104 ± 0.11 |
| E23Y | -0.164 ± 0.27 |
| E23F | -0.263 ± 0.21 |
| E23P | -1.16 ± 0.32 |
| E23S | -0.062 ± 0.059 |
| E23K | -0.187 ± 0.11 |
| E23V | -0.142 ± 0.087 |
| R40M | -0.077 ± 0.12 |
| R40N | -0.075 ± 0.12 |
| R40E | -0.051 ± 0.13 |
| R40I | -0.046 ± 0.13 |

| Variant | abundance fitness |
| --- | --- |
| R40A | 0.097 ± 0.086 |
| R40G | 0.107 ± 0.055 |
| R40C | -0.071 ± 0.12 |
| R40F | -0.006 ± 0.13 |
| R40H | -0.139 ± 0.11 |
| R40L | -0.033 ± 0.056 |
| R40D | -0.085 ± 0.099 |
| K35L | -0.058 ± 0.086 |
| K35T | 0.117 ± 0.094 |
| K35D | -0.455 ± 0.18 |
| K35W | -0.154 ± 0.17 |
| K35P | -0.869 ± 0.27 |
| K35F | -0.247 ± 0.2 |
| K35C | 0.04 ± 0.18 |
| K35S | 0.031 ± 0.074 |
| K35E | -0.116 ± 0.16 |
| K35G | -0.088 ± 0.071 |
| K35Q | 0.078 ± 0.088 |
| K35Y | -0.229 ± 0.21 |
| K35A | -0.096 ± 0.066 |
| K35M | -0.02 ± 0.082 |
| K35N | 0.032 ± 0.16 |
| K35R | 0.006 ± 0.081 |
